Assay [1] has as its target T1, recombinant protein containing hST2 extracellular domain with mouse antibody heavy chain Fc tag (hST2-ECD-mFc) (human).
T1 construct: Used for SPR and for ELISA of chimeric and humanized antibodies; also called human ST2 antigen
T1 chain: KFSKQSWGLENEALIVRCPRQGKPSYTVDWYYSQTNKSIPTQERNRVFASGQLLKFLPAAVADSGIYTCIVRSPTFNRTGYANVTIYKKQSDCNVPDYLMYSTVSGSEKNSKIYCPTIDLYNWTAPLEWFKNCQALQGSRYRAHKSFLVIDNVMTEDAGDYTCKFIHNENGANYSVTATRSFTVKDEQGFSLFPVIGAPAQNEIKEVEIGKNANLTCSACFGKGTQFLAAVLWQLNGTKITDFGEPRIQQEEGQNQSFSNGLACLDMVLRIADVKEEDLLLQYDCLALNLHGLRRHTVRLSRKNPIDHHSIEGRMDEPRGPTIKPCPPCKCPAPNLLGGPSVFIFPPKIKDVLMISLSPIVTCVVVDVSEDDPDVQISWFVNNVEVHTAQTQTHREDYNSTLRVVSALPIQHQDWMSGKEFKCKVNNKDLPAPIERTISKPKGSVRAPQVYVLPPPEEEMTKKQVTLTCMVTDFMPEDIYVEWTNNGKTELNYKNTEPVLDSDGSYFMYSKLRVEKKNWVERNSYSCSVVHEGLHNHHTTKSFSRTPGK
Kind of assay: ELISA, plate coated with hST2-ECD-mFc. As for the experimental part:
ST2 binding screening and analysis of antibodies were performed by ELISA using hST2-ECD-mFc (for assays of chimeric and humanized antibodies), hST2-ECD-hFc protein (for assays of hybridoma antibodies) and Cyno-ST2-his (Sino biological, 90915-C08H) as antigens. A high-adsorption 96-well plate (Costar, 9018) was coated with 2 µg/mL hST2-ECD-mFc or Cyno-ST2-his antigen at 100 µL/well and incubated overnight at 4° C. After the antigen not adsorbed was well washed off, the non-specific binding sites were blocked with a blocking buffer (PBS containing 2% bovine serum albumin). After the plate was washed three times with a washing buffer (PBS containing 0.05% (v/v) Tween 20), the anti-ST2 antibodies (serially diluted 3-fold from an initial concentration of 10 nM to 8 concentrations: 3.333 nM, 1.111 nM, 0.370 nM, 0.123 nM, 0.041 nM, 0.014 nM, 0.005 nM, and 0.002 nM) were added at 100 µL/well, and the plate was incubated at room temperature for 1 h. After the plate was washed with the washing buffer, a horseradish peroxidase (HRP)-conjugated secondary antibody was added, and the plate was incubated for another 60 min. After the plate was washed with the washing buffer, the substrate TMB solution (Thermo, 00-4201-56) was added at 100 µL/well, and the plate was incubated at room temperature for 2 min. A stop solution (2 N H₂SO₄) was added at 100 µL/well to terminate the reactions. Colorimetric signals were generated and read at 450 nm using a microplate reader (PE, Envision). The data were analyzed using GraphPad Prism5, and the EC₅₀ values were calculated.
The humanized antibodies hz31C81-1.1 (the amino acid sequence of the heavy chain set forth in SEQ ID NO: 75 and the amino acid sequence of the light chain set forth in SEQ ID NO: 81) and hz31C8-1.2 (the amino acid sequence of the heavy chain set forth in SEQ ID NO: 77 and the amino acid sequence of the light chain set forth in SEQ ID NO: 81) were subjected to affinity, binding, blocking and cell function analyses using the methods described in Example 4, Example 5, Example 6, Example 7, Example 8, Example 9 and Example 10.
In general terms: ELISA stands for enzyme-linked immunosorbent assay.

Assay [2] deals with T1, recombinant protein containing hST2 …. The assay is described as follows: ELISA, plate coated with hST2-ECD-mFc, antibody not heated. As for the experimental part: The anti-ST2 antibodies were diluted with PBS buffer to a concentration of 1.5 mg/mL. […], the samples were assayed by ELISA for their binding activity for an antigen The ELISA procedure is as follows: A 96-well plate was coated with 2 µg/mL hST2-ECD-mFc as the antigen at 100 µL/well and incubated at 4° C. overnight. After the antigen not adsorbed was well washed off, the non-specific binding sites were blocked with a blocking buffer (PBST containing 1% bovine serum albumin). After the plate was washed three times with a washing buffer (PBST, PBS containing 0.05% (v/v) Tween 20), the anti-ST2 antibodies (serially diluted 3-fold from an initial concentration of 1.5 µg/mL to 8 concentrations) were added at 100 µL/well, and the plate was incubated at 37° C. for 1 h. […] After the plate was incubated at room temperature for 5 min, a stop solution (2 N H₂SO₄) was added to stop the reactions. The signals were read at 450 nm using a plate reader (PE, Envision). The data were analyzed using GraphPad Prism5, and the EC₅₀ values were calculated.

The target is the same in assay [3]. Kind of assay: ELISA, plate coated with hST2-ECD-mFc, antibody heated at 72 °C for 5 min. The procedure: The anti-ST2 antibodies were diluted with PBS buffer to a concentration of 1.5 mg/mL. After being treated at 72° C. for 5 min, the samples were assayed by ELISA for their binding activity for an antigen The ELISA procedure is as follows: A 96-well plate was coated with 2 µg/mL hST2-ECD-mFc as the antigen at 100 µL/well and incubated at 4° C. overnight. After the antigen not adsorbed was well washed off, the non-specific binding sites were blocked with a blocking buffer (PBST containing 1% bovine serum albumin). After the plate was washed three times with a washing buffer (PBST, PBS containing 0.05% (v/v) Tween 20), the anti-ST2 antibodies (serially diluted 3-fold from an initial concentration of 1.5 µg/mL to 8 concentrations) were added at 100 µL/well, and the plate was incubated at 37° C. for 1 h. […] After the plate was incubated at room temperature for 5 min, a stop solution (2 N H₂SO₄) was added to stop the reactions. The signals were read at 450 nm using a plate reader (PE, Envision). The data were analyzed using GraphPad Prism5, and the EC₅₀ values were calculated.

The term EC50 denotes the midpoint of the concentration-response curve.

B1: RG6149 (antibody Ab2 in CN104334582, prepared in-house) (antibody, human IgG2, kappa, V domains shown)
VH: EVQLVQSGAEVKKPGESLKISCKGSGYSFTNYWIGWVRQMPGKGLEWMGIIYPGNSDTRFSPSFQGQVTISADKSITTAYLQWSSLKASDTAMYYCARHGTSSDYYGLDVWGQGTTVTVSS
VL: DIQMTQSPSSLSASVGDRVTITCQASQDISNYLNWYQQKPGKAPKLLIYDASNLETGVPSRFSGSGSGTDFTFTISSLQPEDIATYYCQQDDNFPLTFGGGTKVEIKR
notes: Control anti-ST2 antibody
Take B1: the figures for the 50% effective concentration (EC50) in assay [1] and in assay [2] were 0.113 nM and 0.143 nM, respectively.

B2: Chimeric 31C8 (antibody, human IgG2, kappa, V domains shown)
VH: QVQLQQSGPELVRPGASVTLSCKASGYIFIDSEMHWVKQTPVHGLEWIGAIDPETGDTVYNQKFKGKATLTADKSSSTASMELSSLTSEDSAVYYCTGSTTDYYFAYWGQGTTLTVSS
VL: DIVMTQAAFSNPVTLGTSASISCRSSKSLLHSNGIIYLYWYLQKPGQSPQLLIYQMSNLASGVPDRFSSSGSGTDFTLRISRVEAEDVGVYYCAQNLELPFTFGSGTKLEIKR
notes: also called xi31C8
As to B2, the figures for the EC50 in assay [1], in assay [2] and in assay [3] were 0.0865 nM, 0.0744 nM and 0.0863 nM, respectively.

B3: GSK3772847 (antibody STLM208 in CN104411333, prepared in-house) (antibody, human IgG2, kappa, V domains shown)
VH: EVQLLESGGGLVQPGGSLRLSCAASGFTFSIYDMIWVRQAPGKGLEWVSSIRGEGGGTYYADSVKGRFTISRDNSKNTLYLQMNSLRAEDTAVYYCARDPWSTEGSFFVLDYWGQGTLVTVSS
VL: EIVLTQSPATLSLSPGERATLSCRASQSVDDDLAWYQQKPGQAPRLLIYDASNRATGIPARFSGSGSGTDFTLTISSLEPEDFAVYYCQQYITAPLTFGQGTKVEIKR
notes: Control anti-ST2 antibody
Take B3: the EC50 in assay [1] is 0.127 nM; in assay [2] it was 0.109 nM; in assay [3] it was 0.188 nM.

B4: Humanized 31C8-1.1 (antibody, human IgG2, kappa, V domains shown)
VH: EVQLVQSGAEVKKPGATVKISCKASGYIFIDSEMHWVQQAPGKGLEWMGAIDPETGDTVYAEKFQGRVTITADKSSSTAYMELSSLRSEDTAVYYCTGSTTDYYFAYWGQGTLVTVSS
VL: DIQMTQSPSSLSASVGDRVTITCRSSKSLLHSNGIIYLYWYQQKPGKAPKLLIYQLSNLASGVPSRFSSSGSGTDFTLTISSLQPEDFATYYCAQNLELPFTFGQGTKVEIKR
notes: also called hz31C8-1.1; hz31C81-1.1
In the case of B4, the values for the 50% effective concentration (EC50) in assay [1], in assay [2] and in assay [3] were 0.0879 nM, 0.0906 nM and 0.0968 nM, respectively.

B5: Humanized 31C8-1.2 (antibody, human IgG2, kappa, V domains shown)
VH: QVQLVQSGAKVKKPGATVKISCKASGYIFIDSEMHWVQQAPGKGLEWMGAIDPETGDTVYAKKFKGRVTITADKSSSTAYMELSSLRSEDTAVYYCTGSTTDYYFAYWGQGTLVTVSS
VL: DIQMTQSPSSLSASVGDRVTITCRSSKSLLHSNGIIYLYWYQQKPGKAPKLLIYQLSNLASGVPSRFSSSGSGTDFTLTISSLQPEDFATYYCAQNLELPFTFGQGTKVEIKR
notes: also called hz31C8-1.2; hz31C81-1.2
Turning to B5, the concentration for a half-maximal effect (EC50) in assay [1] amounted to 0.0937 nM; in assay [2], 0.092 nM; in assay [3], 0.11 nM.

The values above are taken from patent US20230272086A1 (CHIA TAI TIANQING PHARMACEUTICAL GROUP, published 2023).
